Source: article PMC3199733, “Expression, purification, electron microscopy, N-glycosylation mutagenesis and molecular modeling of human P2X4 and Dictyostelium discoideum P2XA” (Biochimica et Biophysica Acta, 2011)
Several values for one entry are separate records, joined by “and”; a condition that tells them apart may be missing. Equal values may be shown once.

Molecular target: the molecule itself
Assay: native gel or EMSA; non-denaturing PFO-PAGE (6% gels, 4% PFO) with anti-His Western blot of Sf9 membranes, untreated (Total) or solubilised in 1% (w/v) detergent (DDM, beta-OG, TX-100, FC-12, C12E8, LDAO) in TBS, 1 h on ice

B1: Dictyostelium discoideum P2XA-(His)6 (receptor, UniProt Q86JM7 1-378, looked up)
chain: MGFSFDWDDIFQYSTVKIVRIRDRRLGILHLSFLVGIVAYIVVYSAIIKKGYLFTEVPIGSVRTSLKGPNTFASNLTYCSNQQHNGSTYPFTPLECNYWDEQLALFPVGQDSTFTCTTRVRLSKQEANCNFTDPTCKFVDEPGSAKNIYIADIESFTILIDHTMYASSSGSQFNAVDLHGYILNQDGDEVQIDANGTSIGVSGKPDIMTIGQLLSFGGVSLDQASPVDSNVSIRYDGVVLFVFITYSNTYTYSTSDFKYVYSVQQIANTIYDVPETIILESIHSRLLYKRHGIRVIFIQTGTIGSFHFQTLLLTLVSGLGLLAVATTVVDQLAIRLLPQRKSYSSLKFQVTESMSNPMKKRITTDEGEDVLYTRIEGL
notes: P2XA receptor of Dictyostelium discoideum, full-length wild type, from a human codon-optimised cDNA; N-glycosylated (insect-cell type); also called DdP2XA; DdP2XA-(His)6; source: Sf9 cells, baculovirus-infected; in detergent-solubilised membranes, and purified (Ni-sepharose, preparative PFO-PAGE)
Question: Which “stoichiometry N” value does the source give for B1 here?
Answer: 3

B2: human P2X4-(His)10 (receptor, UniProt Q99571 1-388, looked up)
chain: MAGCCAALAAFLFEYDTPRIVLIRSRKVGLMNRAVQLLILAYVIGWVFVWEKGYQETDSVVSSVTTKVKGVAVTNTSKLGFRIWDVADYVIPAQEENSLFVMTNVILTMNQTQGLCPEIPDATTVCKSDASCTAGSAGTHSNGVSTGRCVAFNGSVKTCEVAAWCPVEDDTHVPQPAFLKAAENFTLLVKNNIWYPKFNFSKRNILPNITTTYLKSCIYDAKTDPFCPIFRLGKIVENAGHSFQDMAVEGGIMGIQVNWDCNLDRAASLCLPRYSFRRLDTRDVEHNVSPGYNFRFAKYYRDLAGNEQRTLIKAYGIRFDIIVFGKAGKFDIIPTMINIGSGLALLGMATVLCDIIVLYCMKKRLYYREKKYKYVEDYEQGLASELDQ
notes: human P2X4 receptor, full-length wild type; N-glycosylated (insect-cell type); also called hP2X4; source: Sf9 cells, baculovirus-infected; in membranes, untreated or detergent-solubilised
Question: With B2 as the protein, how does the “stoichiometry N” value read?
Answer: 2 and 3
